We go through two molecules from US20140093526A1 (RESEARCH FOUNDATION FOR MICROBIAL DISEASES OF OSAKA …, published 2014).

For test [1], the target named is T1, HHV-6B glycoprotein Q1 (gQ1), full length, wild type (human herpesvirus 6B (HHV-6B), UniProt Q9QJ11 25-488).
T1 construct: Viral envelope glycoprotein; Tested in lysates of HHV-6B (HST strain)-infected cells (immunoprecipitation) and expressed from plasmid in 293T cells (IFA), alone or with gQ2; also called HHV-6B gQ1; BgQ1
Nature of the test: co-expression in cells.

In test [2] the target is T2, HHV-6B gQ1 carboxy-terminal deletion mutant, position 1 to position 451 (human herpesvirus 6B (HHV-6B), UniProt Q9QJ11 25-451).
T2 construct: Expressed in 293T cells together with gQ2; also called gQ1 1-451
T2 chain: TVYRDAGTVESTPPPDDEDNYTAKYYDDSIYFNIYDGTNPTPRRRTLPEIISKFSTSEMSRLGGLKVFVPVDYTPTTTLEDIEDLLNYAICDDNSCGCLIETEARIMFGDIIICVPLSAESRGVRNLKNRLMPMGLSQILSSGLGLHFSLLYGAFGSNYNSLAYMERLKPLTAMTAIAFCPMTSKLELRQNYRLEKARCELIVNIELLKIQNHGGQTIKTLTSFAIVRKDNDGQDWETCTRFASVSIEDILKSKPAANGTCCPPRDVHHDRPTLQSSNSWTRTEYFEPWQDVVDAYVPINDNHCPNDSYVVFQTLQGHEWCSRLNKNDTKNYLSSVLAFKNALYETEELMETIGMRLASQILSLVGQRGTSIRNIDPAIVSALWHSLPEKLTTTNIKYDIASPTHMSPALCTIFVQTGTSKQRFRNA
Put plainly: IFA on 293T cells co-transfected with the gQ1 mutant and gQ2.

For test [3], the target named is T3, HHV-6B gQ1 carboxy-terminal deletion mutant, position 1 to position 466 (human herpesvirus 6B (HHV-6B), UniProt Q9QJ11 25-466).
T3 construct: Expressed in 293T cells together with gQ2; also called gQ1 1-466
T3 chain: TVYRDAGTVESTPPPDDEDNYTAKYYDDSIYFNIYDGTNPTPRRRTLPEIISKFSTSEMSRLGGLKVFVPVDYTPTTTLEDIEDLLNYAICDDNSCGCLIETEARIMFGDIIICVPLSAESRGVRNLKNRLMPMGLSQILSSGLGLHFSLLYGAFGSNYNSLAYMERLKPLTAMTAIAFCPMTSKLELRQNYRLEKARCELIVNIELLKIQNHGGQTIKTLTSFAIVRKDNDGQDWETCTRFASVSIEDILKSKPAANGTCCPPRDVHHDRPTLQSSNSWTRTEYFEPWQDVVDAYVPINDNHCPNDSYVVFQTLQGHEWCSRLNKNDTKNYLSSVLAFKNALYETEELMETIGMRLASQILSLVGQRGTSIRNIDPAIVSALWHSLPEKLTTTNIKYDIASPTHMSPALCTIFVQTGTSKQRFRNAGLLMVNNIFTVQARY
The test is described as above.

For test [4], the target named is T4, HHV-6B gQ1 carboxy-terminal deletion mutant, position 1 to position 483 (human herpesvirus 6B (HHV-6B), UniProt Q9QJ11 25-483).
T4 construct: Expressed in 293T cells together with gQ2; also called gQ1 1-483
T4 chain: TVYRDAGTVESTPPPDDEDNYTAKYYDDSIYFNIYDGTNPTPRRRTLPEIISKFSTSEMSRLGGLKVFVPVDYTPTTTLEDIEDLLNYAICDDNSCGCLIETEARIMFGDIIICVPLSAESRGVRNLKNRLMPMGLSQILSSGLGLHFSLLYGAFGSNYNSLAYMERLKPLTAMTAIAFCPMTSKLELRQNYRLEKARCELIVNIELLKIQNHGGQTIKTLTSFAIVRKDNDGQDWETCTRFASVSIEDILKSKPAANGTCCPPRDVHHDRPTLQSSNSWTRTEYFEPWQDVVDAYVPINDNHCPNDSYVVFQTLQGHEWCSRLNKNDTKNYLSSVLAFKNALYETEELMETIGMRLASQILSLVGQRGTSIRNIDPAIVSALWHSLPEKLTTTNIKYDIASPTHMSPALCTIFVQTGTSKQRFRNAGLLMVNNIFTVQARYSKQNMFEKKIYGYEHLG
Described as above.

Test [5] addresses T5, HHV-6B gQ1 point mutant C487W E488Q (human herpesvirus 6B (HHV-6B), UniProt Q9QJ11 25-486).
T5 construct: Expressed in 293T cells; W is used here
Put plainly: IFA with KH-1 on 293T cells expressing the point mutant.

Test [6] addresses T6, HHV-6B gQ1 point mutant E488Q G489V (human herpesvirus 6B (HHV-6B), UniProt Q9QJ11 25-487).
T6 construct: Expressed in 293T cells
Described as above.

B1: HHV-6B glycoprotein Q2 (gQ2) (other)
chain: LPFFSTLPKITSCCDHYVVLNSLSSVSSSTPTCLDGEILFQNAGQKFCRPFTDNRTIVYTMQDQVQRPWSVTWMDFNLVISDYGRAVIENLTESAMSAHKNGPRYLQMETFISDLFRYECHRDNRYVLEKKLQMFYPTTHMNELLFYPSDPTLPSPYGNGHY
notes: Co-expressed with gQ1 from plasmid in cells (293T); also called HHV-6B gQ2; BgQ2
B1: the binding result in test [1] is “binds”.

B2: monoclonal antibody KH-1 (anti-HHV-6B gQ1 neutralizing antibody) (antibody, V domains shown)
VH: EVQLQQSGPELEKPGASVKISCKASGYSFTGYNMNWVKQSNGKRLEWIGNIDPYYGGASYNQKFKGKATLTVDKSSTTAYMQLQSLTSEDSAVYYCARGGYGRYFDVWGAGTAVTVSS
VL: QIVLTQSPAIMSASPGEKVTMTCSASSSISYMHWYQQKPGTSPKRWIYDTSKLASGVPARFSGSGSGTSYSLTISNMESEDAATYYCHQRSRYHTFGGGTRLEIKR
notes: Mouse (BALB/c) hybridoma antibody; also called MAb KH-1; anti-gQ1 monoclonal antibody KH-1
Regarding B2, the binding result in test [2], in test [3], in test [4], in test [5] and in test [6] was “no binding” each time.
